The values below come from PMC8849298, “Structure of ATP synthase from ESKAPE pathogen Acinetobacter baumannii” (Science Advances, 2022).

B1: A. baumannii F1Fo-ATP synthase β-subunit, StrepII-tagged (natural protein, Acinetobacter baumannii, UniProt A3M144 1-464, looked up)
chain: MSSGRIIQIIGAVIDVEFERTSVPKIYDALQVDGTETTLEVQQQLGDGVVRTIAMGSTEGLKRGLTVTSTNAPISVPVGTATLGRIMDVLGRPIDEAGPVATEERLPIHRQAPSYAEQAASTDLLETGIKVIDLLCPFAKGGKVGLFGGAGVGKTVNMMELINNIAKAHSGLSVFAGVGERTREGNDFYHEMKDSNVLDKVAMVYGQMNEPPGNRLRVALTGLTMAEYFRDEKDENGKGRDVLLFVDNIYRYTLAGTEVSALLGRMPSAVGYQPTLAEEMGVLQERITSTKSGSITSIQAVYVPADDLTDPSPATTFAHLDATVVLSRDIASSGIYPAIDPLDSTSRQLDPLVVGQEHYEIARAVQNVLQRYKELKDIIAILGMDELAEEDKLVVYRARKIQRFFSQPFHVAEVFTGAPGKLVPLKETIRGFKGLLAGEYDHIPEQAFYMVGGIDEVIAKAEKL
notes: ATP synthase subunit beta, Acinetobacter baumannii; gene at 3815454-3814060 of GenBank CP053098.1, amplified from genomic DNA with a StrepII tag coded at the 5' end; Three copies stand in the complex; also called βDP*; βTP; not shown: StrepII, N-terminal, kept

Holding throughout (experiment): cryo-EM structure; single-particle cryo-EM of the whole F1Fo-ATP synthase purified from A. baumannii membranes via the StrepII tag on β and reconstituted into peptidiscs; three rotational states; buffer A (50 mM Hepes pH 6.8, 150 mM KCl, 5 mM MgCl2) without detergent
Data set [1] concerns the target T1, A. baumannii F1Fo-ATP synthase α-subunit (Acinetobacter baumannii ATCC 17978 …, UniProt A3M142 1-514).
T1 construct: ATP synthase subunit alpha, Acinetobacter baumannii ATCC 17978; Three copies stand in the complex (α3β3γδεab2c10); also called αDP; αE; source: endogenous, A. baumannii ATCC 17978 membranes
The conditions noted are these: both partners purified.

Data set [2] deals with T2, A. baumannii F1Fo-ATP synthase a-subunit (Acinetobacter baumannii ATCC 17978 …, UniProt A3M137 1-291).
T2 construct: ATP synthase subunit a, Acinetobacter baumannii ATCC 17978; S5A; also called proton-conducting a-subunit; source: endogenous, A. baumannii ATCC 17978 membranes
T2 sequence (A3M137 whole entry): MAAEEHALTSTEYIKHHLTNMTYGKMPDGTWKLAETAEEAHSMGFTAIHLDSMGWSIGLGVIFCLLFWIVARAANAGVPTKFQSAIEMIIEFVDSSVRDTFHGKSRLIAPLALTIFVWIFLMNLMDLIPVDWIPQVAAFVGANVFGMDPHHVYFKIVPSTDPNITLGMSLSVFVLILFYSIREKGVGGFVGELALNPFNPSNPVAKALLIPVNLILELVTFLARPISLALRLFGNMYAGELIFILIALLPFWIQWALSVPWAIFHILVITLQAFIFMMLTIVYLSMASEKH
The conditions noted are these: both partners purified.

Data set [3] concerns the molecule itself.
Data set [4] addresses T3, A. baumannii F1Fo-ATP synthase γ-subunit (Acinetobacter baumannii ATCC 17978 …, UniProt A3M143 1-289).
T3 construct: ATP synthase subunit gamma, Acinetobacter baumannii ATCC 17978; source: endogenous, A. baumannii ATCC 17978 membranes
T3 sequence (looked up): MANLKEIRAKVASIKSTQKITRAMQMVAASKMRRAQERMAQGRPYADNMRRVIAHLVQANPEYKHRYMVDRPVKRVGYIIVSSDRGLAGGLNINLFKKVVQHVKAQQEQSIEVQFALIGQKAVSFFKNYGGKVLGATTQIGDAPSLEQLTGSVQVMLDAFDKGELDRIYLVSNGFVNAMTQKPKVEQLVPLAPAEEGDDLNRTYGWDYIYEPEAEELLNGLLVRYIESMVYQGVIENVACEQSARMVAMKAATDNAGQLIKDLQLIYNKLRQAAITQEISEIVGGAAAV
The conditions noted are these: both partners purified.

For data set [5], the target named is B1. The conditions noted are these: both partners purified.

As usually defined, the stoichiometry N is a count of units in the complex or per binding partner.

T1 sequence (A3M142 whole entry): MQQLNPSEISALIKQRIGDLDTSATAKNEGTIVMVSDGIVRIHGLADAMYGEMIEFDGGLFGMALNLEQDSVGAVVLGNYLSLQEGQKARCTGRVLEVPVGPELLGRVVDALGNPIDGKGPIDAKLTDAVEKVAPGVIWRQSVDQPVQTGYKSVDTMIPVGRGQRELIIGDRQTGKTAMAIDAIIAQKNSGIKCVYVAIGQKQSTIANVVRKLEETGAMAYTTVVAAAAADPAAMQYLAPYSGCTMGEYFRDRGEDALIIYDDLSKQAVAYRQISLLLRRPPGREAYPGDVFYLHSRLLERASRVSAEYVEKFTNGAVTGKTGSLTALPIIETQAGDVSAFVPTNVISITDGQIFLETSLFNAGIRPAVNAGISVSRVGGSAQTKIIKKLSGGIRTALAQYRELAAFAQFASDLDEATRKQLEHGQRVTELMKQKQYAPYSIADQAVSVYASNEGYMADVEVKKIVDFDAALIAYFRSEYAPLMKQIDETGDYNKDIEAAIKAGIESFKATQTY

As to B1, the binding result in data set [1] is on record as “binds”.

B2: A. baumannii F1Fo-ATP synthase c-subunit (c10 ring) (natural protein, UniProt A3M139 1-81, looked up)
chain: MELTLGLVAIASAILIAFGALGTAIGFGLLGGRFLEAVARQPELAPQLQTRMFLIAGLLDAVPMIGVGIGLFFIFANPFVG
notes: ATP synthase subunit c, Acinetobacter baumannii ATCC 17978; also called c-ring; source: endogenous, A. baumannii ATCC 17978 membranes; copies: 10
For B2, in data set [2], the binding result is “binds”. In addition, the “stoichiometry N” value in data set [3] was 10.

B3: A. baumannii F1Fo-ATP synthase ε-subunit (natural protein, UniProt A3M145 1-139, looked up)
chain: MATMQCDVVSVKESIYSGAVTMLIAKGAGGELGILPGHAPLVTLLQPGPIRVLLENGTEEIVYVSGGVLEVQPHVVTVLADTAIRADNLDEAAILEARKNAEQLLANQKSDLDSAAALAALAETAAQLETIRKIKNRAQ
notes: ATP synthase subunit epsilon, Acinetobacter baumannii ATCC 17978; also called subunit ε; source: endogenous, A. baumannii ATCC 17978 membranes
As for B3, the binding result in data set [4], in data set [5] and in data set [1] was “binds” each time.
